Where only a bound is given, the exact number is not on record here.

Test [1] addresses CCR5 (Homo sapiens (Human)) (UniProt P51681).
The target is the same in test [2]. The source holds these as a separate data set.
Test [3] shares this target. The source holds these as a separate data set.

In test [1], “NNY-P2Thz-Y3tButA-RANTES (4-68) (from UniProt P13501) (ligand)” came in with a Mean Relative Potency (IC50 in the envelope-mediated cell fusion assay, relative to AOP-RANTES = 100) (relative to AOP-RANTES = 100) of 4. Moreover, in test [2], the inhibition of envelope-mediated cell fusion was over 50 % inhibition.
Turning to “NNY-P2Thz-Y3Chg-RANTES (4-68) (from UniProt P13501) (ligand)”, the Mean Relative Potency (IC50 in the envelope-mediated cell fusion assay, relative to AOP-RANTES = 100) (relative to AOP-RANTES = 100) in test [1] was 2. The substance further returned an inhibition of envelope-mediated cell fusion in test [2] of over 50 % inhibition.
For the substance “NNY-P-Y3tbuA-RANTES (4-68) (from UniProt P13501) (ligand)”, the Mean Relative Potency (IC50 in the envelope-mediated cell fusion assay, relative to AOP-RANTES = 100) (relative to AOP-RANTES = 100) in test [1] was 7. In addition, in test [3], the Average Infectivity IC50 (cell-free viral infection assay) was 0.014 nM and the Cell-Fusion Result For Comparison (IC50) worked out at 0.038 nM. For the same substance, in test [2], the inhibition of envelope-mediated cell fusion was over 50 % inhibition.
Turning to “NNY-P-Y3Chg-RANTES (4-68) (from UniProt P13501) (ligand)”, in test [1], the Mean Relative Potency (IC50 in the envelope-mediated cell fusion assay, relative to AOP-RANTES = 100) (relative to AOP-RANTES = 100) worked out at 7. In test [3], this substance returned an Average Infectivity IC50 (cell-free viral infection assay) of 0.012 nM and a Cell-Fusion Result For Comparison (IC50) of 0.026 nM. Moreover, in test [2], the inhibition of envelope-mediated cell fusion is over 50 % inhibition.

These data come from US20040077835A1.
